Measurements as given in the Human Domainome abundance scans (Beltran et al. 2025).
± gives the uncertainty stated by the source.

B1: 1-phosphatidylinositol 4,5-bisphosphate phosphodiesterase gamma-2, residues 772 to 827; numbered along this chain, P16885 (parent)
chain: RTVKALYDYKAKRSDELSFCRGALIHNVSKEPGGWWKGDYGTRIQQYFPSNYVEDI

Variants of: B1
Assay: abundance fitness (aPCA) (normalised: wild type 0, dead -1); higher = more abundant; growth selection in yeast, the domain comes from the species named
Settings: Homo sapiens

Abundance fitness, by site and new letter:
Y52: G -0.787 ± 0.11, M 0.045 ± 0.071, W -0.327 ± 0.089, I -0.077 ± 0.16, Q -0.281 ± 0.1, D -0.98 ± 0.35, H -0.222 ± 0.097, P -0.892 ± 0.29, T 0.01 ± 0.094, C -0.086 ± 0.064, F 0.022 ± 0.081, S -0.304 ± 0.066, R -0.295 ± 0.049, E -0.943 ± 0.47, A -0.092 ± 0.091, K -0.138 ± 0.11, N -0.605 ± 0.21, L 0.026 ± 0.049
S50: C -0.18 ± 0.1, K 0.103 ± 0.12, Q -0.398 ± 0.15, I -0.261 ± 0.096, L -0.737 ± 0.13, W -0.412 ± 0.088, F -0.181 ± 0.061, A 0.221 ± 0.095, G -0.093 ± 0.058, R 0.035 ± 0.062, P -0.241 ± 0.081, Y 0.057 ± 0.098, M 0.071 ± 0.1, D -0.506 ± 0.12, T -0.352 ± 0.071, H -0.163 ± 0.19
Q45: S -0.472 ± 0.093, C -0.33 ± 0.13, R -0.92 ± 0.14, T -0.651 ± 0.24, I -0.658 ± 0.28, K -0.51 ± 0.16, Y -0.732 ± 0.28, L -0.923 ± 0.25, W -0.916 ± 0.45, V -0.942 ± 0.17, D -0.753 ± 0.23, H -0.458 ± 0.1, P -0.699 ± 0.28, N -0.273 ± 0.11, E -0.819 ± 0.29, A -0.335 ± 0.091, G -0.278 ± 0.081
D55: L -0.448 ± 0.12, M 0.086 ± 0.14, N -0.033 ± 0.065, I -0.365 ± 0.29, S -0.216 ± 0.081, G -0.314 ± 0.074, Y -0.287 ± 0.15, P -0.022 ± 0.092, V -0.238 ± 0.06, H -0.213 ± 0.1, Q -0.281 ± 0.12, A -0.114 ± 0.069, C -0.139 ± 0.049, F -0.202 ± 0.09, E 0.065 ± 0.089
V53: L -0.876 ± 0.12, R -0.836 ± 0.12, Q -0.731 ± 0.35, E -0.934 ± 0.28, G -0.923 ± 0.073, H -0.947 ± 0.34, M -0.731 ± 0.22, T -0.177 ± 0.091, P -1.02 ± 0.32, F -0.803 ± 0.37, A -0.442 ± 0.093, D -0.823 ± 0.25, K -0.979 ± 0.15
I44: Y -0.116 ± 0.1, S -0.454 ± 0.12, M 0.019 ± 0.064, G -0.811 ± 0.11, Q -0.246 ± 0.12, C -0.074 ± 0.069, T 0.191 ± 0.08, N -0.224 ± 0.15, H 0.026 ± 0.084, V 0.043 ± 0.064, A -0.196 ± 0.05, L -0.111 ± 0.076, F -0.237 ± 0.16, P -0.845 ± 0.47, D -0.64 ± 0.34, E -0.133 ± 0.091, W -0.384 ± 0.081, K -0.008 ± 0.14
Y47: E -0.672 ± 0.21, H -0.437 ± 0.18, R 0.076 ± 0.063, M -0.417 ± 0.19, Q -0.167 ± 0.15, I -0.607 ± 0.25, G -0.604 ± 0.098, L 0.002 ± 0.056, F -0.051 ± 0.085, N -0.256 ± 0.19, D -0.763 ± 0.17, C -0.401 ± 0.12, V -0.34 ± 0.076, S -0.293 ± 0.082
N51: P -0.425 ± 0.12, L -0.261 ± 0.057, A -0.025 ± 0.058, K -0.076 ± 0.069, I -0.373 ± 0.25, S 0.067 ± 0.059, V -0.134 ± 0.076, Y -0.155 ± 0.12, T -0.025 ± 0.045, Q -0.129 ± 0.087, H 0.208 ± 0.11, C 0.13 ± 0.089, W -0.022 ± 0.054, G -0.034 ± 0.044, E 0.094 ± 0.065, F -0.398 ± 0.33, M -0.232 ± 0.092, R -0.057 ± 0.048
E54: I -0.353 ± 0.14, N -0.196 ± 0.17, W -0.55 ± 0.055, G -0.276 ± 0.055, M -0.316 ± 0.17, Y -0.38 ± 0.15, T -0.256 ± 0.067, F -0.04 ± 0.12, R -0.125 ± 0.045, Q -0.392 ± 0.12, D -0.291 ± 0.21, A -0.119 ± 0.053, H -0.272 ± 0.082, V -0.244 ± 0.061, L -0.434 ± 0.05, C -0.197 ± 0.094
Q46: T -0.391 ± 0.097, E -0.684 ± 0.39, W -0.367 ± 0.086, F -0.274 ± 0.1, N -0.114 ± 0.16, C -0.193 ± 0.11, V -0.653 ± 0.092, M 0.006 ± 0.075, R -0.175 ± 0.073, D -0.673 ± 0.21, G 0.086 ± 0.071, L -0.041 ± 0.062, A 0.053 ± 0.06, S 0.054 ± 0.077, K -0.067 ± 0.097, P -0.866 ± 0.27, Y -0.223 ± 0.17
F48: W -0.848 ± 0.16, N -0.437 ± 0.4, M -0.911 ± 0.15, V -0.939 ± 0.19, A -1.02 ± 0.16
